Starred links: 1 amine or outer side, 2 acyl side, 3 side chain; linkers in the order of their positions; H or OH if unused. Non-standard residues stand in square brackets, D forms with d. Groups on a side chain read outwards from the residue. No end group written: not given here. *: point of attachment. C20 diacid = O=C(O)CCCCCCCCCCCCCCCCCCC(=O)*; C18 diacid = O=C(O)CCCCCCCCCCCCCCCCC(=O)*; γGlu = O=C(O)[C@H](CCC(=O)[*:2])N[*:1]; αMeF = C[C@](N)(Cc1ccccc1)C(=O)O; AEEA = NCCOCCOCC(=O)O; Aib = CC(C)(N)C(=O)O
B1: Peptide 141 (peptide)
peptide: H[Aib]QGTFTSDVSK[αMeF]LDSK([AEEA-AEEA-γGlu-C18 diacid])RAQDFVAWLLE[Aib]G-OH
modifications: N-terminus assumed
SMILES: CC(C)C[C@H](NC(=O)[C@H](Cc1c[nH]c2ccccc12)NC(=O)[C@H](C)NC(=O)[C@@H](NC(=O)[C@H](Cc1ccccc1)NC(=O)[C@H](CC(=O)O)NC(=O)[C@H](CCC(N)=O)NC(=O)[C@H](C)NC(=O)[C@H](CCCNC(=N)N)NC(=O)[C@H](CCCCNC(=O)COCCOCCNC(=O)COCCOCCNC(=O)CC[C@H](NC(=O)CCCCCCCCCCCCCCCCC(=O)O)C(=O)O)NC(=O)[C@H](CO)NC(=O)[C@H](CC(=O)O)NC(=O)[C@H](CC(C)C)NC(=O)[C@](C)(Cc1ccccc1)NC(=O)[C@H](CCCCN)NC(=O)[C@H](CO)NC(=O)[C@@H](NC(=O)[C@H](CC(=O)O)NC(=O)[C@H](CO)NC(=O)[C@@H](NC(=O)[C@H](Cc1ccccc1)NC(=O)[C@@H](NC(=O)CNC(=O)[C@H](CCC(N)=O)NC(=O)C(C)(C)NC(=O)[C@@H](N)Cc1c[nH]cn1)[C@@H](C)O)[C@@H](C)O)C(C)C)C(C)C)C(=O)N[C@@H](CC(C)C)C(=O)N[C@@H](CCC(=O)O)C(=O)NC(C)(C)C(=O)NCC(=O)O
B2: Peptide 143 (peptide)
peptide: H[Aib]QGTFTSDVSK[αMeF]LDSK([AEEA-AEEA-γGlu-C18 diacid])RARDFVQWLLE[Aib]G-OH
modifications: N-terminus assumed
SMILES: CC(C)C[C@H](NC(=O)[C@H](Cc1c[nH]c2ccccc12)NC(=O)[C@H](CCC(N)=O)NC(=O)[C@@H](NC(=O)[C@H](Cc1ccccc1)NC(=O)[C@H](CC(=O)O)NC(=O)[C@H](CCCNC(=N)N)NC(=O)[C@H](C)NC(=O)[C@H](CCCNC(=N)N)NC(=O)[C@H](CCCCNC(=O)COCCOCCNC(=O)COCCOCCNC(=O)CC[C@H](NC(=O)CCCCCCCCCCCCCCCCC(=O)O)C(=O)O)NC(=O)[C@H](CO)NC(=O)[C@H](CC(=O)O)NC(=O)[C@H](CC(C)C)NC(=O)[C@](C)(Cc1ccccc1)NC(=O)[C@H](CCCCN)NC(=O)[C@H](CO)NC(=O)[C@@H](NC(=O)[C@H](CC(=O)O)NC(=O)[C@H](CO)NC(=O)[C@@H](NC(=O)[C@H](Cc1ccccc1)NC(=O)[C@@H](NC(=O)CNC(=O)[C@H](CCC(N)=O)NC(=O)C(C)(C)NC(=O)[C@@H](N)Cc1c[nH]cn1)[C@@H](C)O)[C@@H](C)O)C(C)C)C(C)C)C(=O)N[C@@H](CC(C)C)C(=O)N[C@@H](CCC(=O)O)C(=O)NC(C)(C)C(=O)NCC(=O)O
B3: Peptide 142 (peptide)
peptide: H[Aib]QGTFTSDVSK[αMeF]LDSK([AEEA-AEEA-γGlu-C18 diacid])RARDFVAWLLE[Aib]G-OH
modifications: N-terminus assumed
SMILES: CC(C)C[C@H](NC(=O)[C@H](Cc1c[nH]c2ccccc12)NC(=O)[C@H](C)NC(=O)[C@@H](NC(=O)[C@H](Cc1ccccc1)NC(=O)[C@H](CC(=O)O)NC(=O)[C@H](CCCNC(=N)N)NC(=O)[C@H](C)NC(=O)[C@H](CCCNC(=N)N)NC(=O)[C@H](CCCCNC(=O)COCCOCCNC(=O)COCCOCCNC(=O)CC[C@H](NC(=O)CCCCCCCCCCCCCCCCC(=O)O)C(=O)O)NC(=O)[C@H](CO)NC(=O)[C@H](CC(=O)O)NC(=O)[C@H](CC(C)C)NC(=O)[C@](C)(Cc1ccccc1)NC(=O)[C@H](CCCCN)NC(=O)[C@H](CO)NC(=O)[C@@H](NC(=O)[C@H](CC(=O)O)NC(=O)[C@H](CO)NC(=O)[C@@H](NC(=O)[C@H](Cc1ccccc1)NC(=O)[C@@H](NC(=O)CNC(=O)[C@H](CCC(N)=O)NC(=O)C(C)(C)NC(=O)[C@@H](N)Cc1c[nH]cn1)[C@@H](C)O)[C@@H](C)O)C(C)C)C(C)C)C(=O)N[C@@H](CC(C)C)C(=O)N[C@@H](CCC(=O)O)C(=O)NC(C)(C)C(=O)NCC(=O)O
B4: Peptide 146 (peptide)
peptide: H[Aib]QGTFTSDVSK[αMeF]LDSK([AEEA-AEEA-γGlu-C18 diacid])RAQDFVRWLASR-OH
modifications: N-terminus assumed
SMILES: CC(C)C[C@H](NC(=O)[C@H](Cc1c[nH]c2ccccc12)NC(=O)[C@H](CCCNC(=N)N)NC(=O)[C@@H](NC(=O)[C@H](Cc1ccccc1)NC(=O)[C@H](CC(=O)O)NC(=O)[C@H](CCC(N)=O)NC(=O)[C@H](C)NC(=O)[C@H](CCCNC(=N)N)NC(=O)[C@H](CCCCNC(=O)COCCOCCNC(=O)COCCOCCNC(=O)CC[C@H](NC(=O)CCCCCCCCCCCCCCCCC(=O)O)C(=O)O)NC(=O)[C@H](CO)NC(=O)[C@H](CC(=O)O)NC(=O)[C@H](CC(C)C)NC(=O)[C@](C)(Cc1ccccc1)NC(=O)[C@H](CCCCN)NC(=O)[C@H](CO)NC(=O)[C@@H](NC(=O)[C@H](CC(=O)O)NC(=O)[C@H](CO)NC(=O)[C@@H](NC(=O)[C@H](Cc1ccccc1)NC(=O)[C@@H](NC(=O)CNC(=O)[C@H](CCC(N)=O)NC(=O)C(C)(C)NC(=O)[C@@H](N)Cc1c[nH]cn1)[C@@H](C)O)[C@@H](C)O)C(C)C)C(C)C)C(=O)N[C@@H](C)C(=O)N[C@@H](CO)C(=O)N[C@@H](CCCNC(=N)N)C(=O)O
B5: Peptide 145 (peptide)
peptide: H[Aib]QGTFTSDVSK[αMeF]LDSK([AEEA-AEEA-γGlu-C18 diacid])RAQDFVRWLASRGI-OH
modifications: N-terminus assumed
SMILES: CC[C@H](C)[C@H](NC(=O)CNC(=O)[C@H](CCCNC(=N)N)NC(=O)[C@H](CO)NC(=O)[C@H](C)NC(=O)[C@H](CC(C)C)NC(=O)[C@H](Cc1c[nH]c2ccccc12)NC(=O)[C@H](CCCNC(=N)N)NC(=O)[C@@H](NC(=O)[C@H](Cc1ccccc1)NC(=O)[C@H](CC(=O)O)NC(=O)[C@H](CCC(N)=O)NC(=O)[C@H](C)NC(=O)[C@H](CCCNC(=N)N)NC(=O)[C@H](CCCCNC(=O)COCCOCCNC(=O)COCCOCCNC(=O)CC[C@H](NC(=O)CCCCCCCCCCCCCCCCC(=O)O)C(=O)O)NC(=O)[C@H](CO)NC(=O)[C@H](CC(=O)O)NC(=O)[C@H](CC(C)C)NC(=O)[C@](C)(Cc1ccccc1)NC(=O)[C@H](CCCCN)NC(=O)[C@H](CO)NC(=O)[C@@H](NC(=O)[C@H](CC(=O)O)NC(=O)[C@H](CO)NC(=O)[C@@H](NC(=O)[C@H](Cc1ccccc1)NC(=O)[C@@H](NC(=O)CNC(=O)[C@H](CCC(N)=O)NC(=O)C(C)(C)NC(=O)[C@@H](N)Cc1c[nH]cn1)[C@@H](C)O)[C@@H](C)O)C(C)C)C(C)C)C(=O)O
B6: Peptide 144 (peptide)
peptide: H[Aib]QGTFTSDVSK[αMeF]LDSK([γGlu-γGlu-AEEA-AEEA-γGlu-γGlu-C18 diacid])RARDFVRWLLE[Aib]G-OH
modifications: N-terminus assumed
SMILES: CC(C)C[C@H](NC(=O)[C@H](Cc1c[nH]c2ccccc12)NC(=O)[C@H](CCCNC(=N)N)NC(=O)[C@@H](NC(=O)[C@H](Cc1ccccc1)NC(=O)[C@H](CC(=O)O)NC(=O)[C@H](CCCNC(=N)N)NC(=O)[C@H](C)NC(=O)[C@H](CCCNC(=N)N)NC(=O)[C@H](CCCCNC(=O)CC[C@H](NC(=O)CC[C@H](NC(=O)COCCOCCNC(=O)COCCOCCNC(=O)CC[C@H](NC(=O)CC[C@H](NC(=O)CCCCCCCCCCCCCCCCC(=O)O)C(=O)O)C(=O)O)C(=O)O)C(=O)O)NC(=O)[C@H](CO)NC(=O)[C@H](CC(=O)O)NC(=O)[C@H](CC(C)C)NC(=O)[C@](C)(Cc1ccccc1)NC(=O)[C@H](CCCCN)NC(=O)[C@H](CO)NC(=O)[C@@H](NC(=O)[C@H](CC(=O)O)NC(=O)[C@H](CO)NC(=O)[C@@H](NC(=O)[C@H](Cc1ccccc1)NC(=O)[C@@H](NC(=O)CNC(=O)[C@H](CCC(N)=O)NC(=O)C(C)(C)NC(=O)[C@@H](N)Cc1c[nH]cn1)[C@@H](C)O)[C@@H](C)O)C(C)C)C(C)C)C(=O)N[C@@H](CC(C)C)C(=O)N[C@@H](CCC(=O)O)C(=O)NC(C)(C)C(=O)NCC(=O)O
B7: Peptide 138 (peptide)
peptide: H[Aib]QGTFTSDVSK[αMeF]LDSK([γGlu-γGlu-AEEA-AEEA-γGlu-γGlu-C18 diacid])RAQDFVRWLLE[Aib]G-OH
modifications: N-terminus assumed
SMILES: CC(C)C[C@H](NC(=O)[C@H](Cc1c[nH]c2ccccc12)NC(=O)[C@H](CCCNC(=N)N)NC(=O)[C@@H](NC(=O)[C@H](Cc1ccccc1)NC(=O)[C@H](CC(=O)O)NC(=O)[C@H](CCC(N)=O)NC(=O)[C@H](C)NC(=O)[C@H](CCCNC(=N)N)NC(=O)[C@H](CCCCNC(=O)CC[C@H](NC(=O)CC[C@H](NC(=O)COCCOCCNC(=O)COCCOCCNC(=O)CC[C@H](NC(=O)CC[C@H](NC(=O)CCCCCCCCCCCCCCCCC(=O)O)C(=O)O)C(=O)O)C(=O)O)C(=O)O)NC(=O)[C@H](CO)NC(=O)[C@H](CC(=O)O)NC(=O)[C@H](CC(C)C)NC(=O)[C@](C)(Cc1ccccc1)NC(=O)[C@H](CCCCN)NC(=O)[C@H](CO)NC(=O)[C@@H](NC(=O)[C@H](CC(=O)O)NC(=O)[C@H](CO)NC(=O)[C@@H](NC(=O)[C@H](Cc1ccccc1)NC(=O)[C@@H](NC(=O)CNC(=O)[C@H](CCC(N)=O)NC(=O)C(C)(C)NC(=O)[C@@H](N)Cc1c[nH]cn1)[C@@H](C)O)[C@@H](C)O)C(C)C)C(C)C)C(=O)N[C@@H](CC(C)C)C(=O)N[C@@H](CCC(=O)O)C(=O)NC(C)(C)C(=O)NCC(=O)O

Target: human GLP-1 receptor (hGLP-1R) (human, UniProt P43220 24-463)
Assay: cell-based or functional assay

Row | hGLP-1R EC50 (pM) | Binder
1 | 264 | B1
2 | 19.1 | B2
3 | 59.4 | B3
4 | 24.6 | B4
5 | 22.6 | B5
6 | 45.2 | B6
7 | 104 | B7
8 | 630 | H[Aib]QGTFTSDVSK[αMeF]LDSK([γGlu-γGlu-AEEA-AEEA-γGlu-γGlu-C20 diacid])RAQDFVRWLLE[Aib]G-OH [Peptide 139]

Target: human glucagon receptor (hGCGR) (human, UniProt P47871 26-477)
Sequence (P47871 26-477): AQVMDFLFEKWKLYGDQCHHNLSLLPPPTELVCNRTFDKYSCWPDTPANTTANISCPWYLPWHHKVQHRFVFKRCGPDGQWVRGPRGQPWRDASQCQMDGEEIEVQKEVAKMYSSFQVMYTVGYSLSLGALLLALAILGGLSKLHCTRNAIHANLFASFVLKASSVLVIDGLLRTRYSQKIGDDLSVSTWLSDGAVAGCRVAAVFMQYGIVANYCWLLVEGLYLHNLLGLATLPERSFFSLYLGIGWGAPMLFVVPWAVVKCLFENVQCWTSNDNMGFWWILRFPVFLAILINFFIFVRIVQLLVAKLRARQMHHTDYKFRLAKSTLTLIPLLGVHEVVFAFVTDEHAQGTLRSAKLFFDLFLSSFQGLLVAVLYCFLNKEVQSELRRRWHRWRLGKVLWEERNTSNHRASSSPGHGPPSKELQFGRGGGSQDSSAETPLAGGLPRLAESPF
Assay: cell-based or functional assay

Row | hGluc-R EC50 (pM) | Binder
9 | 392 | B1
10 | 32.6 | B2
11 | 108 | B3
12 | 1630 | B4
13 | 4590 | B5
14 | 702 | B6
15 | 184 | B7
16 | 984 | H[Aib]QGTFTSDVSK[αMeF]LDSK([γGlu-γGlu-AEEA-AEEA-γGlu-γGlu-C20 diacid])RAQDFVRWLLE[Aib]G-OH [Peptide 139]
